Test results from PMC11735773.

Target: SARS-CoV-2 nucleoprotein (NP) (SARS-CoV-2, UniProt P0DTC9 1-419)

**Q.** Does GGGGGGGGGGGG (structured_RNA, phosphorothioate linkages) [TAMRA-G12(S)] bind?
**A.** Result: binds
